Test results taken from the DeepSol protein solubility set.

Assay: soluble on expression in E. coli; label from the status in PepcDB or PDB records
In the case of “MGSDKIHHHHHHMYVAVKGGEQAILNTHKLISETRRGDPEIAELTLPQISEQLGLAVDRVMAEGSVYDRQLAALALKQAQGDAMEAIFLLRAYRTTLPRIAVSEPIDTSRMAIRRRISATFKDLPGGQVLGPTYDYTHRLLDFALTAEGLERVRAVPAAEPLDQSVPRVVDLLDDEGVIQEENDDDQEEVFDLTRQPKSFPAGRDQRLQNLARADEGFLLGLAYSTTRGYGFNHPFVGELRLGEVTVEIVPEELGFPIVVAEVTVTECQMINSFRGSAEQPPQFTRGYGLTFGHNEGKAMSMSLVDRAMRARELGEDVRYPAQDEEFVLSHTDNVEANGLVTHYKLPHYVDFQAELQLVRQLRAEYEAARAAAQTREAAE”, the “soluble on expression in E. coli” value is reported as “not soluble”. In the case of “MGSDKIHHHHHHQPPFPAPPAVRDIDCLEQDLMVYARALPQPDAPLLTLQDQERQTGFFLRRFFAAWDMRAPSMPRHTMFADLRATLDGKGWGANLLPVPPARTESLWQRCRTGEYPSLAVPAIITGNTSLRMAPDDEPFFRDPARAGEGYPFDYFQYSALWAGMPVFVVHASSDGGWLLCETPLAAGWVRARDVAYVDSGFMNAYRTGMYAAVVADDTPLRTAEGRWVLTAHTGAVFPVDKADAAGLVLRVPVRGADGGAGIRLVHVSYGAAARMPLPLTPVAVAMVGNGMMRQPYGWGGLLENRDCSAAMHDLFAPFGIWLPRNSSQQARAGALVSLEEMTPPQREAHILEQGVPFFSFIWMRGHIGLYLGPDRQDCAAGKPLMFHNVWGIRTGGGRAPEGRLVIGRAVVTTLHAGEEYPQVRKNWMLDRIRGLTLLPPQVP”, the “soluble on expression in E. coli” value is reported as “not soluble”. For “MGSDKIHHHHHHSCGTNGSKTTSTDITEKKVIVQVPQFDADSAYKYIQAQVDFGPRTPNSKGHVACGDYLAAKLAEHGAKVISQNAELPAYDGTLLKARNIIGSFKPESKKRIALFAHWDTRPWADNDPNEKNHHTPILGANDGASGVGVLLEIARQINQQQPELGIDIIFLDAEDYGAPQFYTGEHREDQWCLGAQYWARTPHVDGYNARFGILLDMVGGKDATFFKEVYSEKYAKGINKKVWKKANDAGYGRYFINEVGGQITDDHLFINRLAGIPTIDIIPNDENCELSSFGPTWHTVNDNMDAIDRSTLKAVGQTVLEVIYNEK”, the “soluble on expression in E. coli” value was “not soluble”. In the case of “MGSDKIHHHHHHTEGWFMPFDNWLYQLQNADPVEISSSGFEIAVIDYSKDGSESGEYSPEEIKIMVDAGVVPVAYVNIGQAEDYRFYWKESWYTNTPEWLGEEDPAWPGNYFVKYWYNEWKEIVFSYLDRVIDQGFKGIYLDRIDSFEYWAQEGVISRRSAARKMINFVLEIAEYVRERKPDMLIIPQNGENILDFDDGQLASTVSGWAVENLFYLKTIPLEENETKSRLEYLIRLNRKGKFILSVDYVDDGSDSFENISRILDYYEKAKRNGCIPYAARSDLELDEMNVIEGIQPPEALKDYESRTYR”, the “soluble on expression in E. coli” value is reported as “soluble”. In the case of “MGSDKIHHHHHHTGIWQWSVPVHNFSTHPKNPESRAYLWIPGQCEQVKAILVAQHNMEEISILEDEAFRQRMAELDVAQIWVCPSFNHGFDFTDGAWETLDGLLADLAEESGYKELSTAPLIAIGHSAAASWPYYLAAYKPERTLACISVSGQWPYHRDRWLCPDIWGERNINKIPCLETMGEYESAHTWSNEGLKERKEHPLLPLSMLACPAEGHFAYTPEKAQYIALYIKKAMHYGHVDPTKEGWLMERWKKNEKPSCIPAPVNQFKGDPAQAFWFFDREMIEATLAYQSRYYDMKPQLVSVSQNGKTVSQQNTHLQVHPAFIPQEDGITFQLTPVFLDTVPGESPRLSNWTDLPVGASIGHAGKAPVLQMITGPVVLVDSVTFRIQWNRGTLWTDKKSDIVFSITHPGDEEYKPAVQQAQMIIPVKNTEGQQQYIKFATLPDIKRGTKYVSLSAVSSCGLPVDFYVESGPAYVDGNRLILTAIPPKTTYPVKVTVIAWQYGKNSDPKIKTAEPVKQTFYIR”, the “soluble on expression in E. coli” value is reported as “not soluble”. With “MGSDKIHHHHHHVARLVASVDKYIYTVNGDTILSHQFISNNAQFGNGIEVSQDNHFPWSGEIHYEINNPNQLAFKLGIRIPSWSRNKFGLKINGKKIDLASEDGFIYINVNDESLTVDLSLDMNTKFMRSSNKVSSNYGKIAVQRGPIVYAAEETDNKAPLWNYKVETDKEPKYHYNKDLLEGVGTITVKSIAEEISPEDGPLYSTIDEATANYETDLKLIPYYAWANREEGQMQVWLNK” the “soluble on expression in E. coli” value was “not soluble”. For “MGSDKIHHHHHHVDWNWNGDIRFRYDSSKTELASSPDKPADDRYRLRARFGVSPTINDELSAGLRLATGDGKNPTSTNQTLGKDFADKAIWLDEAYINYHPKALEGKVNVLLGKRDIAKTFNVVKDLVWDSDVTIEGATLQYGKDVSGKQKSGPSLIAGYYTLENYATASDPCIFAVQGAYMGTVSGADFNLGASYFDYVHMKNVAWWNSPNGPANDGKDFRILEVFGTLGGKLGGSLPATLYAQYAHNTALNSDNNAVLAGLKLGSDKKPGGWTLDGGYFYIEKYAVTPLTDGDRPMSSKYSTDIKGLKIGATYQLVQNMTLGATYFHVNPVDSSLTGSTSDHKNLVQADVAVNF”, the “soluble on expression in E. coli” value was “not soluble”. For “MGSDKIHHHHHHVFDALVIGSGPAGLAIAAELAQRGLKVQGLSPVDPFHPWENTYGIWGPELDSLGLEHLFGHRWSNCVSYFGEAPVQHQYNYGLFDRAQLQQHWLRQCEQGGLQWQLGKAAAIAHDSHHSCVTTAAGQELQARLVVDTTGHQAAFIQRPHSDAIAYQAAYGIIGQFSQPPIEPHQFVLMDYRSDHLSPEERQLPPTFLYAMDLGNDVYFVEETSLAACPAIPYDRLKQRLYQRLATRGVTVQVIQHEEYCLFPMNLPLPDLTQSVVGFGGAASMVHPASGYMVGALLRRAPDLANAIAAGLNASSSLTTAELATQAWRGLWPTEKIRKHYIYQFGLEKLMRFSEAQLNHHFQTFFGLPKEQWYGFLTNTLSLPELIQAMLRLFAQAPNDVRWGLMEQQGRELQLFWQAIAAR”, the “soluble on expression in E. coli” value was “not soluble”. With “MGSDKIHHHHHHVNGLPLVELSGDAYTQGWQHGRALREAIAANLRIYMTRFERELRIPPDEVWRRALRYAAVIAEQNQDYAAGMRGIAEGAGVDLAAIAALNVRYELFYQFFREYERGTGKPDGCTAFALLPSETDNGHLLVGENWDWIQGVRGAILRTIAPDGLRTLAFTEAGIFGGKIGLNAAGLALLINGLSSTGDDWASLRRPFHVRCYEILQARSLTEAQAVITSEERAGSANFLLAQVPDRVVNIEAAPAALAISGCTNGCLVHANHFTDPAALGIVERQIERYPHSYWRQERLRSLLASRPQSLAQVQAALRDHEQFPYSVCFHIDPADPPDEYYETVASVIMDVTAGVLYATDGPPCEHAYVRYELEVAR” the “soluble on expression in E. coli” value was “not soluble”. With “MGSDKIHHHHHHVNSDNNPNQISDIKPILKVYIENSGSMDGYMCDGSQLKDAIFDYVSDLSTCVDTTQLYYINNRVIPYHADLEQYIKTMNPITFQKAGGNRSNSDLSKMLSTVLDAMTDSTVSIFVSDCILDLPVSDAQRFLSTCQISIKNTINKGRKNIPLLGVEILKMKSDFNGKYFYQNGGSEVLTNVKRPYYIWIFGNSNVLAKLNTEVLFKGLEKYGYDNIISYCPKTSIPYDITNRALISKTINPIKGDYNATIRADFCTTLQSEDVLLNLDNYSFNNQNLIIENIKPIIATEREYSHFINITIPKGVNIAEDYLILKAPNMPSWVLESNDESGENVKGNLDKTTGIKYLIGGVSDAYKKDNVLTTLKFTVKRK” the “soluble on expression in E. coli” value was “not soluble”. With “MGSDKIHHHHHHVPKNKDSKNNSIPRRRFGRTEIQIPVLSLGGMRFQQSWKDLDPKEINNQQQEILQKTISYAAQKGMHHIETARHYGTSERQIGWAFDQIDDPKRILQTKVPPNNDPSIFEQELELSMSRLGSKKIDLLAIHGINLPEHLDMTIRPNGCLQIVRRWQKDGLIGHVGFSTHANVDLIIKTIETGFFDYVNLHWYFIRQENEKALQAADANDLGVFIISPTDKGGHLHTPSLKLLDLCSPLHPIEFNDLFCLRDKRIHTLSVGASSPEDLDIHLSAISKMDTMHGVINTIEKRLINASYKSLGESWLTTWNIGLPRWDQTPGEINIPTLLWLNNLLEAWDMESFVKDRYGLLGRGGHWFPGANADCLDCEVSEDDLKKVLINSPWSSEIPSVLRKLKDRLGGERRDRLWGI” the “soluble on expression in E. coli” value was “not soluble”. For “MGSDKIHHHHHHVSATISDLDRLLVAIAAIPTPWKEWPGGYPGRLDLALVDAVMSIRFRYGRERKDGSWTGARGAVLRYQAYSDHVAPAEKMKNLANQDPIALERILNRQKVHSGKTKACAIVEAAQRFLAIDVTEPAHLRPDDAEHRAQYTGVSGLGPVTWEYFTMLLSHDGVKADTWIRRFVERSVQRNVSSDEAGALIKEAANKLDVRETKLDYAVWNYASTTRLETMPKLS”, the “soluble on expression in E. coli” value was “not soluble”. In the case of “MGSDKIHHHHHHVSDTVDHNAWKTTGVVVIQNDVLTLAGSNARALLNDGKGYTNFELDMDVRTTTGGKGYIGIHTDATDRKGYRIALNNDREDPVWWRMTGSLVSVRNLTKSFVKENEWFKMNIRVEGRLIRVRINGETVVEYIEPSKPFRLKENAKALLSQGTISLVGTGRGNLQFKNISLEAFSAKGIDIPAQWANAVDEQTDEIIRLHQEDFPVLDYHVHLKGGLTKEVAARQSRQTGVNYGLAINCGIGFSITNDTELYNYLDTMRTQPFILAMQAEGREWVTTFSEAARNSFDYVFTDAMTFLDHKGRRTHLWVNKEVIIDDEQAYMDMMLDRICSVLEEPVDMYVNSCFLPDAMSDRYDMFWTEERIDRFVNALAKSGKALEINELYHIPNKAIIQKAKAAGVKFTFGSNNITPEVGTLDYCIRMKKECGLTAQDMYKPHINI”, the “soluble on expression in E. coli” value is reported as “not soluble”. In the case of “MGSDKIHHHHHHVSVPTQHHLSAERLDQSAQFARITSTVEAPVLSLWLPDPQQAVPSACGRAVAGHDGPSEGAGGQRQGGESGQLCRAHLRLQPGPVLAGEAEAPPTRPQFLLVVATHLQRSFTREVKLHGRCPRRVRRPFHLITQIDNQVRGCRPDLTQHRREREGVPVHVADDCHSHPSSLAQTGAAPPANMRPMSILPDWRIRELAQAGMIEPFEDRLIRTAENGHVISYGLSSFGYDLRCADEWKVFTNVHGALVDPKNFDERSFVDLQANAIIIPPNSFVLARSLEYLRIPENVMVVALGKSTYARCGIVANVTPLEPGWEGHVTLEFSNTTPLPAKMYAFEGCVQLLFFEGERPAVTYRDRGGKYQKQRGVTLPRL”, the “soluble on expression in E. coli” value is reported as “not soluble”. In the case of “MGSDKIHHHHHHVVRKINFMNLIELLKKIKRKILAQMFNLNYRPYTHTTVIFESFGGRQISDSPLAIYKELKKTHPEYRLIWVVNKGLATQAEKNGYDYVIRGSFKWVRTIEKAQVWVENARLPQWVRKPDHIKLIQTWHGTPLKKLGLDIKNVVMPGTNTERYHQNFVREANRWDVLISPNTYSTNIFRQAFGYQNKIVEIGYPRNDKLANPTKEEIKLLKQKLGIPLDKKVIMYAPTYRDNQFFQKGKYSFELPFSLKEFQERFGSNAVLLLRMHYLIANSMDISGFEDFAYDVSSYADISELYLVSDLLITDYSSVFFDYAYLKRPILFYPYDYEIYKDELRGFYLDYQKDLPGKIAYNSVDLYDEIENELKENDISNNQQFEMFYKRFCGLNAGNASKRIVEEIERNL”, the “soluble on expression in E. coli” value is reported as “not soluble”. For “MGSDKIHHHHHHYYLIVSQLLGDTASVKLLVPPGANPHLFSLKPSDAKTLEEADLIVANGLGLEPYLEKYREKTVFVSDFIPALLLIDDNPHIWLDPFFLKYYIVPGLYQVLIEKFPEKQSEIKQKAEEIVSGLDTVIRDSFKALLPYTGKTVVMAHPSFTYFFKEFGLELITLSSGHEHSTSFSTIKEILRKKEQIVALFREPQQPAEILSSLEKELRMKSFVLDPLGVNGEKTIVELLRKNLSVIQEALK”, the “soluble on expression in E. coli” value was “not soluble”. In the case of “MGSSHHHHHHGGTGENLYFQGGSGRPAGTLASFLERCSARKRGRGCVVLTGAGCSTESGIPDYRGPNGQYHRADFVLLTFQKFMRDDNEKRRYWARSMLGYSTMCGASCNAAHMALQAFTKSGAVAHILTQNVDGLHHLATYGGVGDAEEEHYYKYTTSDAPLKELHGNIHNVICTSCGFFMPRARLQRELRERNPGFYEQYGADVSRTRPDGDYSAPTEAVNAMHLVMCPRCNGFFKPHVVLFGENVPKPIVEATMSLVRDKASCLLCLGTSLQVYSAYRYVLQANQLGIPVAIVNAGTTRGDAIADLKLDVESVGSVLAETAHEMLGVPASMFFRRKTIQL”, the “soluble on expression in E. coli” value is reported as “not soluble”.
